US20140329787A1, “PHYTOPHTHORA PHOSPHOLIPASE C” (Deakin University, priority 2011, published 2014)
“Also recorded” adds a separate entry of the source.

B1: Alt-PLC2: Phytophthora sojae Alt-PLC with the additional 35aa fragment in the RAS-GEF domain, SEQ ID NO: 14 (protein, listed as Phytophthora sojae)
chain: MASGWRQKPRLDPWDPPSPPPLLEEAAPKPKPKTSRFSRRSTRAKSHARQQAQHVELEREKAFRLVRHGSDPLLNDAFYATQVQVGNFVKMGWLTKQGHMWKSWKTRFFVLFSDGTFAYYKNKGRKKIKGCMQLNDGVVSVQHVDIRLADKAYVFQIEKGFYKLLCYCCSQFEAELWVAALRSVRRVAPPCYEMDLTATEEKAGSNAVTRHLNKIFITDKQIAKRLAEFKANTHDHSYAAIHNFIVELDDAIIDRHHLEFYQDAEIELLPGNELVRLIRRHVEDRVFIPLYAEAYASLETDKVKTRRSNLEQHLKVLKQKTQADFGISKDLSVCNWKQAISVVNMLDCVSLPTHKFEVILSAGKAIMELIAQYNGELFEVSDEMLTAIFRYVVTMSSLSDLPTLRALLKYGYQHHPASQNKANVVTAFLNAIKWVECFEAGDESYQFDSLALAGSRVSVSISTNDVGIQFTTDGNGRGAIVYNIRKQSQAALSAAIVPGLSLIAINHEPVIGMPFDKIIQRVRTAALPKQLTFMTEFYYYQLLSLDSEMYQYLMCIAARRGDLDSAAWMRSSTIELNTLCSWEKSRGKQVFGFTPVSGKGSPLHAAVHNGQLSMVNYLISRGADVNLCNQKGRRPLHVVKQSIDMAMIIQSLIDAGADIDAMEKHGLTPLMFMCSRASLEGSATLLALGADVHCVAWTNGFSALEFAVKSEHTELVELCLSKGANPNAPTLDGNTSLHLAATQANTDIILRLLQGGANPNVQNRYGQTPAALLLASSPGGSSDVRILCLEILTCAGCRLDKRDLFGRQASHLASISRDSHVVDLLRKLGSLNREANGVEIDIFGCSSVDYSHRIEVDKSASYLGSQMPNSSWKMVDKDDHVSRSARPGSVDDLIRELVAGTEVDLVDVVSFVLFLDSFSSLNEVVDRLSAHVRNGVKSHGLIRLFIVVLLFRQSETKEADDLRDRFYSLISLNIDAKDKLEYFSLRGAGNYAVNYQAIPGMMSKVYGMESGFEPVSSGPFSAHLHRFVDAERWAEQCTLLTHAVFCKIPVRDFIPTGSKKKHSVEFTSIKRWFQHISAFVINAVLVQNTPEERAEVISFYLKVADYCISLHNHDTLASILYALQSTAVQRLRKTIDCLSLDAKKMMNEMQLLSDKGCREMNRLMRKTANPSMPYIGLYLQGFVGLNELPAFDKEGLVNANRLRRMGELAMEILHRQSVAYTLQHDEDVNKLLHVSLPYSSEESRYARSLELEPREADAIPLSDRGSYTLIDDDVDLENEVRESIGGDGTFGFRQWIRKQQVVHRNRSRSSVIALY
B2: t3: truncated Phytophthora sojae Alt-PLC1, SEQ ID NO: 19 (protein)
chain: YQFDSLALAGSRVSVSISTNDVGIQFTTDGNGRGAIVYNIRKQSQAALSAAIVPGLSLIAINHEPVIALEFAVKIDYSHRIEVDKSASYLGSQMPNSSWKMVDKDDHVSRSARPGSVDDLIRELVAGTEVDLVDVVSFVLFLDSFSSLNEVVDRLSAHVRNGVKSHGLIRLFIVVLLFRQSETKEADDLRDRFYSLISLNIDAKDKLVPLVEEYMSLYKEYFSLRGAGNYAVNYQAIPGMMSKVYGMESGFEPVSSGPFSAHLHRFVHPFIQRNHAATATVTMHHLLFTNPLTKAKGAIAANAFTHFVFQIHIIINQGIAATIAQRNRIRFTRFQFQATRITAFFAAIRQAHMQQFVHIFIMLQGIRHALTMQNFHRQFAHTTQTVRVHQAFFIKRRQFVQAHKALQIQANIRHARVRGFTHQTVHFTAAFIAQQLHFVHHFLCIQAQFQIKANHFRTFFRGVLHQHRVNHKRANMLKPTFNAGKFHAMLFLATGRNKITHRNFAKHRMGQQGALFRPTFRI
modifications: Derived from Phytophthora sojae
B3: t2: truncated Phytophthora sojae Alt-PLC1, SEQ ID NO: 18 (protein)
chain: YQFDSLALAGSRVSVSISTNDVGIQFTTDGNGRGAIVYNIRKQSQAALSAAIVPGLSLIAINHEPVIALEFAVKIDYSHRIEVDKSASYLGSQMPNSSWKMVDKDDHVSRSARPGSVDDLIRELVAGTEVDLVDVVSFVLFLDSFSSLNEVVDRLSAHVRNGVKSHGLIRLFIVVLLFRQSETKEADDLRDRFYSLISLNIDAKDKLVPLVEEYMSLYKEYFSLRGAGNYAVNYQAIPGMMSKVYGMESGFEPVSSGPFSAHLHRFVHPFIQRNHAATATVTMHHLLFTNPLTKAKGAIAANAFTHFVFQIHIIINQGIAATIAQRNRIRFTRFQFQATRITAFFAAIRQAHMQQFVHIFIMLQGIRHALTMQNFHRQFAHTTQTVRVHQAFFIKRRQFVQAHKALQIQANIRHARVRGFTHQTVHFTAAFIAQQLHFVHHFLCIQAQFQ
modifications: Derived from Phytophthora sojae
B4: t1: truncated Phytophthora sojae Alt-PLC1, SEQ ID NO: 17 (protein)
chain: YQFDSLALAGSRVSVSISTNDVGIQFTTDGNGRGAIVYNIRKQSQAALSAAIVPGLSLIAINHEPVIALEFAVKIDYSHRIEVDKSASYLGSQMPNSSWKMVDKDDHVSRSARPGSVDDLIRELVAGTEVDLVDVVSFVLFLDSFSSLNEVVDRLSAHVRNGVKSHGLIRLFIVVLLFRQSETKEADDLRDRFYSLISLNIDAKDKLVPLVEEYMSLYKEYFSLRGAGNYAVNYQAIPGMMSKVYGMESGFEPVSSGPFSAHLHRFV
modifications: Derived from Phytophthora sojae

How the values were obtained:
[1] = Hydrolysis of PIPx, neutral-lipid TLC; format: biochemical; conditions: 0.2 mg/ml enzyme
Procedure: Lipid samples of 0.5 μl were applied to silica 60 TLC plates and allowed to dry prior to the addition of more sample. Neutral lipids were applied to 10×20 cm pre-absorption zone-bearing silica-60 plates (Sigma-Aldrich, USA) and resolved in a solvent mixture of hexane:diethyl ether:acetic acid (9:1:0.5). Phospholipids were resolved on 20×20 cm silica-60 plates (Merck, Australia), without a pre-absorption zone, in a solvent mixture of chloroform:methanol:acetic acid:water (90:40:12:2). Lipids were detected by spraying the dried TLC plates with a solution of 0.05% rhodamine B (Sigma) in methanol and destaining was performed by repeated spraying with 5 M KOH. Lipid spots were then visualised following UV excitation at 312 nm.
Alt-PLC and Alt-PLC2 were refolded into buffer A4 at a concentration of 0.2 mg/ml and a hydrolysis reaction was performed using PIPx (mixed phosphatidylinositols, Sigma) as the substrate. The reaction was performed as described previously and the resultant neutral lipids were extracted by diethyl ether phase extraction. The samples were analysed by neutral-lipid thin-layer chromatography, on silica 60 plates with a pre-absorption zone; the mobile phase employed was hexane: diethyl ether: acetic acid (9:1:0.5).

E. coli = test: Growth curves of E. coli expressing Alt-PLC and truncations; format: cell-based; conditions: relative to E. coli not expressing Alt-PLC
Procedure: An analysis of function of the Alt-PLC truncations was performed using growth curves of Alt-PLC expressing E. coli cells (FIG. 28).
Therefore, growth curves of E. coli expressing Alt-PLC and the truncations allow determination of Alt-PLC function in vivo.

| Molecule | monoacylglycerol production / phospholipase C activity level in vitro [1] | growth of expressing E. coli (function in vivo) (E. coli) |
| --- | --- | --- |
| B1 | detection of monoacylglycerol production | same reduced growth rate shown by cells expressing Alt-PLC1 |
| B2 | – | reduced growth of E. coli; also recorded: significantly higher lethality |
| B3 | – | reduced growth of E. coli |
| B4 | – | reduced growth of E. coli |
